The target of one assay is T1, p75^NTR (Homo sapiens, UniProt P08138).
T1 sequence (P08138 29-427): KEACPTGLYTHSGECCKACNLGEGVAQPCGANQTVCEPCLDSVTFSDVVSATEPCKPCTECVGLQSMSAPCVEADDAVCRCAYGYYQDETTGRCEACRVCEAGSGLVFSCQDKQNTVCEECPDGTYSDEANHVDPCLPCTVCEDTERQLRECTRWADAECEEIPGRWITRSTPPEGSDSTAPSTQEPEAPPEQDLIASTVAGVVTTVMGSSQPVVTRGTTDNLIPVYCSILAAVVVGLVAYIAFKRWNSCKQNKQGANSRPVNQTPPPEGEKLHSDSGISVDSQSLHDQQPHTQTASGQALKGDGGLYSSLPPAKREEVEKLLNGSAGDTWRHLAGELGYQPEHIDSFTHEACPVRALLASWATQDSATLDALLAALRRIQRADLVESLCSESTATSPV
Particulars: lysine 34 replaced by alanine; cited from earlier work.

The test system of the next assay is p75. The experiment in a line: Regulation of p75 mRNA in melanocytes by agents that increase cAMP. It is filed as cell-based, human. Particulars: forskolin 50 μM or IBMX 100 μM, within 24 hours. As to the method:
MC were stimulated with growth factor-containing medium supplemented with forskolin (50 μM) or IBMX (100 μM) that increase cAMP levels. […] To determine if ultraviolet (UV) irradiation that induces cutaneous injury upregulates p75, MC were sham- or UV-irradiated with solar simulated light (30 mJ/cm^2, metered at 285+5 nm). […] Furthermore, 48 hours after irradiation, cAMP levels were >70% decreased in UV- vs sham-irradiated cells.

For the molecule “mutant NGF: NGF in which lysine (K) at position 34 is replaced by alanine (A)”, the “Lowering of affinity for p75NTR relative to NGF” value with p75^NTR is on record as 50%.

In the case of `CC(C)Cn1c(=O)n(C)c(=O)c2[nH]cnc21` [IBMX], the “p75 mRNA upregulation” value in the assay with p75 is reported as “substantially inhibited this upregulation”.
